Experiment [1] has as its target 5pGST, recombinant FbsA fragment 5p (one repeat) fused to GST (Streptococcus agalactiae strain COH1). As to the kind of experiment: SPR; BIAcore X; 5pGST or 6pGST (500 nM) captured on immobilized goat anti-GST antibody, GST alone in the reference cell; human Fng flowed at 2.92 nM to 750 nM, 20 µl/min; equilibrium analysis. Background: SPR reads the build-up and loss of mass on a sensor chip optically.

Experiment [2] addresses 6pGST, recombinant FbsA fragment 6p (five repeats) fused to GST (Streptococcus agalactiae strain COH1). The description is as above.
In experiment [3] the target is 5pGST, recombinant FbsA fragment 5p (one repeat) fused to GST (Streptococcus agalactiae strain COH1). The experiment in a line: ELISA; 5pGST or 6pGST (500 ng/well) coated overnight at 4°C in 0.1 M carbonate buffer, blocked with 2% BSA, increasing amounts of human Fng; detected with mouse anti-human Fng IgG and peroxidase-conjugated rabbit anti-mouse IgG. Background: ELISA stands for enzyme-linked immunosorbent assay.

In experiment [4] the target is 6pGST, recombinant FbsA fragment 6p (five repeats) fused to GST (Streptococcus agalactiae strain COH1). The experiment is described as above.

As a reminder, the Kd is the equilibrium constant for the complex coming apart. The term EC50 denotes the concentration giving half of the maximal effect. “Human fibrinogen (from UniProt P02671 36-866; P02675 45-491; P02679 27-453) (complex)”: the Kd in experiment [1] came out at 27.5 nM; in experiment [2] it was 23 nM. Besides, the concentration giving a half-maximal response (EC50) in experiment [3] came out at 31.2 nM; in experiment [4], 63 nM.
